This is an account of results in PMC3711433, “Differential roles of human Dicer-binding proteins TRBP and PACT in small RNA processing” (Nucleic Acids Research, 2013).

For data set [1], the target named is T1, Dicer (human, UniProt Q9UPY3 1-1922).
T1 construct: Dicer, human endoribonuclease; also called endonuclease Dicer
Nature of the data set: native gel or EMSA; dsRNA A (0.5 uM) with 0, 0.5 or 1 uM protein or complex in 20 mM HEPES (pH 7.5), 300 mM KCl, 5% glycerol, 1 mM TCEP, on ice 45 min, 6% native PAGE, SYBR-Gold; the shift by the Dicer-dsRBP complex is compared with that by the dsRBP alone. To be noted: both partners purified. (A gel shift assay detects complexes by their altered migration in electrophoresis.)
T1 sequence (Q9UPY3 whole entry): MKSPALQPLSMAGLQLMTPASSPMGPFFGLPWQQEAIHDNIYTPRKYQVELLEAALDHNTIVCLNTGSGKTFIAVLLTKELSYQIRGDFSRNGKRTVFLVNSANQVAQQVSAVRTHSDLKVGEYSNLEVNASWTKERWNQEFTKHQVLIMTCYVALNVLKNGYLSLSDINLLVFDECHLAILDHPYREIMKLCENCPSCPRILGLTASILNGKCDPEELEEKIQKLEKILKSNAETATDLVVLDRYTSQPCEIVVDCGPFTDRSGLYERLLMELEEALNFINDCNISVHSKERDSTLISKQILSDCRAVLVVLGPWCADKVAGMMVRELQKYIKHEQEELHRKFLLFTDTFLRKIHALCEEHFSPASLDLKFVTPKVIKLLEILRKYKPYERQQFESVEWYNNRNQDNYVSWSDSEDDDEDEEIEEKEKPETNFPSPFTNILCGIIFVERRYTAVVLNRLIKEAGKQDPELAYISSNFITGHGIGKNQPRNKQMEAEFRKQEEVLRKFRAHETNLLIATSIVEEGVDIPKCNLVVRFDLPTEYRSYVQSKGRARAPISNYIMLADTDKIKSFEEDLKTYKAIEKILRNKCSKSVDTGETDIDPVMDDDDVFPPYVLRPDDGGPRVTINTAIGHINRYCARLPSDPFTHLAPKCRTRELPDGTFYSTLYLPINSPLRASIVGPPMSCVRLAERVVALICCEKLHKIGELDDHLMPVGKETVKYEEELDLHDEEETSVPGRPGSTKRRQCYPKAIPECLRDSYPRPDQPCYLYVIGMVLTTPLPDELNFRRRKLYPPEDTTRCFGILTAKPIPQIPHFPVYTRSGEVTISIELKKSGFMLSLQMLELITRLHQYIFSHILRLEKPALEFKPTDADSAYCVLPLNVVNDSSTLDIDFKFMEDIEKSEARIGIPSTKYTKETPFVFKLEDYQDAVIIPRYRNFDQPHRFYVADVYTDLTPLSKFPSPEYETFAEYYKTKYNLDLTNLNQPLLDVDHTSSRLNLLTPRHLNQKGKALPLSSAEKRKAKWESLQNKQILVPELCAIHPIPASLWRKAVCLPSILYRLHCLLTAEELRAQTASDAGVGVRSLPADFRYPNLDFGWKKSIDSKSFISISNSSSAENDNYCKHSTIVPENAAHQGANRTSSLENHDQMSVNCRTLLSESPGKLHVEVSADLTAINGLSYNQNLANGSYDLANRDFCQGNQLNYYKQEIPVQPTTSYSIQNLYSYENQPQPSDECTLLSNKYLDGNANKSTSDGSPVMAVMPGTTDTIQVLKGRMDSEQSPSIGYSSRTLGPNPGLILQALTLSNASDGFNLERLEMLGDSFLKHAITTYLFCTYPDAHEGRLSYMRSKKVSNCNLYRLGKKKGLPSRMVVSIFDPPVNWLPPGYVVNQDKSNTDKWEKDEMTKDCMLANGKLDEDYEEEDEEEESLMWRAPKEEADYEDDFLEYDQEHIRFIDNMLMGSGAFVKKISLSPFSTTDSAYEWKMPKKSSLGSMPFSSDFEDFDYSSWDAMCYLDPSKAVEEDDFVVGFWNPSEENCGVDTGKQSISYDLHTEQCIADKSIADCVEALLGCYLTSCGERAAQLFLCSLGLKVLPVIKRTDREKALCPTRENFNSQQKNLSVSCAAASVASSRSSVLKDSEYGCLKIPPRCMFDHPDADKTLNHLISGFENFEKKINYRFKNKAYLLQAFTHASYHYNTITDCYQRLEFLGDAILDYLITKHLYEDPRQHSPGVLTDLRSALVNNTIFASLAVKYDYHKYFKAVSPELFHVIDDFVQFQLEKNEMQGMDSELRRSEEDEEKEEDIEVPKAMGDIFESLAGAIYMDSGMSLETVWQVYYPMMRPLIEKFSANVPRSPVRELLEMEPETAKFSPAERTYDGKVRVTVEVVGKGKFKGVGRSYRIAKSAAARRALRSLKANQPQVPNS

For a further data set, the target named is Dicer;TRBP (human;human, UniProt Q9UPY3;Q15633 1-1922;1-366, |). Nature of the data set: EMSA; 0.5 uM dsRNA, up to 1 uM complex; Fig 1B: 20 mM HEPES pH 7.5, 300 mM KCl, 5% glycerol, 1 mM TCEP, on ice 45 min, 6% native PAGE; Fig S5: 20 mM Tris-HCl pH 6.5, 1.5 mM MgCl2, 25 mM NaCl, 1 mM DTT, 1% glycerol, on ice 60 min. To be noted: protein: recombinant;recombinant; copies: 1;1.

Data set [2] concerns the target Dicer (human, UniProt Q9UPY3 1-1922). Description: EMSA; 0.5 uM dsRNA, up to 1 uM protein; Fig 1B: 20 mM HEPES pH 7.5, 300 mM KCl, 5% glycerol, 1 mM TCEP, on ice 45 min, 6% native PAGE; Fig S5: 20 mM Tris-HCl pH 6.5, 1.5 mM MgCl2, 25 mM NaCl, 1 mM DTT, 1% glycerol, on ice 60 min. To be noted: protein: recombinant.
Target sequence in this assay (Q9UPY3 whole entry): as above
The target in another data set is T2, TRBP (human, UniProt Q15633 1-366).
T2 sequence: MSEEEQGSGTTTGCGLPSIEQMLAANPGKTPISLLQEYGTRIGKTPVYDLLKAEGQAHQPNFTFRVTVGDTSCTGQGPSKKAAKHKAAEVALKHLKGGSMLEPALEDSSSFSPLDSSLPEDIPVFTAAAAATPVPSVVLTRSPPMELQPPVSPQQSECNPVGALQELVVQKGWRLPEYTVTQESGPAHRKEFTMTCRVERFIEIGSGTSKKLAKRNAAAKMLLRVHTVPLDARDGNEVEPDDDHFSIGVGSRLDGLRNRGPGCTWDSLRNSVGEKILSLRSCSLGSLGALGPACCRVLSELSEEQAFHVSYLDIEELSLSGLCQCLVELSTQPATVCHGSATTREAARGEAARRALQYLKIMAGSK
The data set is described as above. To be noted: protein: recombinant.

The target of the next data set is Dicer;PACT (human;human, UniProt Q9UPY3;O75569 1-1922;1-313, |). Nature of the data set: EMSA; 0.5 uM dsRNA, up to 1 uM complex; shift distinct from PACT alone; Fig 1B: 20 mM HEPES pH 7.5, 300 mM KCl, 5% glycerol, 1 mM TCEP, on ice 45 min, 6% native PAGE; Fig S5: 20 mM Tris-HCl pH 6.5, 1.5 mM MgCl2, 25 mM NaCl, 1 mM DTT, 1% glycerol, on ice 60 min. The note with it: protein: recombinant;recombinant; tags: ;His6-MBP removed by TEV; copies: 1;1.

Data set [3] addresses T1, Dicer. Nature of the data set: SEC; gel filtration column chromatography of Dicer with the dsRBP or chimeric dsRBP, reconstituted from purified proteins. The note with it: both partners purified.

Sequence of Dicer;PACT (Q9UPY3 whole entry, one chain of several): as the sequence (Q9UPY3 whole entry) above
Sequence of Dicer;TRBP (Q9UPY3 whole entry, one chain of several): as the sequence (Q9UPY3 whole entry) above

B1: trans-activation response RNA-binding protein (TRBP) (natural protein, human, UniProt Q15633 1-366, looked up)
chain: MSEEEQGSGTTTGCGLPSIEQMLAANPGKTPISLLQEYGTRIGKTPVYDLLKAEGQAHQPNFTFRVTVGDTSCTGQGPSKKAAKHKAAEVALKHLKGGSMLEPALEDSSSFSPLDSSLPEDIPVFTAAAAATPVPSVVLTRSPPMELQPPVSPQQSECNPVGALQELVVQKGWRLPEYTVTQESGPAHRKEFTMTCRVERFIEIGSGTSKKLAKRNAAAKMLLRVHTVPLDARDGNEVEPDDDHFSIGVGSRLDGLRNRGPGCTWDSLRNSVGEKILSLRSCSLGSLGALGPACCRVLSELSEEQAFHVSYLDIEELSLSGLCQCLVELSTQPATVCHGSATTREAARGEAARRALQYLKIMAGSK
notes: called full-length; the chimeras' limits run to residue 366; removal of His6-MBP after TEV cleavage on a Ni-NTA column is told by comparison with the PACT purification
Take B1: in the data set with Dicer [1], the binding result is reported as “binds”.

B2: dsRNA A (dsRNA)
RNA 1: UGGCCUUGGGCAACGGUAAUU
RNA 2: UUACCGUUGCCCAAGGCCAUU
For B2, the binding result is “binds” with Dicer;TRBP, “no binding” with Dicer [2], “binds” with TRBP and “binds” with Dicer;PACT.

B3: T12P3 (other, human, UniProt Q15633 1-232, looked up)
chain: MSEEEQGSGTTTGCGLPSIEQMLAANPGKTPISLLQEYGTRIGKTPVYDLLKAEGQAHQPNFTFRVTVGDTSCTGQGPSKKAAKHKAAEVALKHLKGGSMLEPALEDSSSFSPLDSSLPEDIPVFTAAAAATPVPSVVLTRSPPMELQPPVSPQQSECNPVGALQELVVQKGWRLPEYTVTQESGPAHRKEFTMTCRVERFIEIGSGTSKKLAKRNAAAKMLLRVHTVPLDAPENHISLTNVVGHSLGCTWHSLRNSPGEKINLLKRSLLSIPNTDYIQLLSEIAKEQGFNITYLDIDELSANGQYQCLAELSTSPITVCHGSGISCGNAQSDAAHNALQYLKIIAERK
notes: TRBP, human, residues 1-232 (dsRBD1, linker, dsRBD2); PACT, human, residues 197-313 (with dsRBD3); purified by the PACT method, which removes His6-MBP by TEV cleavage; also called chimeric protein T12P3; source: purified (HiTrap-Q flow-through, HiTrap-SP, then as PACT)
Regarding B3, the binding result in the data set with Dicer [3] is given as “binds”.

B4: protein activator of PKR (PACT) (natural protein, human, UniProt O75569 1-313, looked up)
chain: MSQSRHRAEAPPLEREDSGTFSLGKMITAKPGKTPIQVLHEYGMKTKNIPVYECERSDVQIHVPTFTFRVTVGDITCTGEGTSKKLAKHRAAEAAINILKANASICFAVPDPLMPDPSKQPKNQLNPIGSLQELAIHHGWRLPEYTLSQEGGPAHKREYTTICRLESFMETGKGASKKQAKRNAAEKFLAKFSNISPENHISLTNVVGHSLGCTWHSLRNSPGEKINLLKRSLLSIPNTDYIQLLSEIAKEQGFNITYLDIDELSANGQYQCLAELSTSPITVCHGSGISCGNAQSDAAHNALQYLKIIAERK
notes: called full-length; the chimeras' limits run to residue 313; source: purified (TEV cleavage, HiTrap-SP, Superdex-200)
In the case of B4, in the data set with Dicer [3], the binding result is on record as “binds”.
